According to publication PMC1919378 (BMC Structural Biology, 2007):

T1: Gnd1 (6PGDH/Gnd1) (Saccharomyces cerevisiae, UniProt P38720)
T1 construct: full length, 489 residues; pET28a-derived vector, E. coli Rosetta (DE3); homodimer; residues 1-476 seen in crystal
T1 sequence (P38720 1-489): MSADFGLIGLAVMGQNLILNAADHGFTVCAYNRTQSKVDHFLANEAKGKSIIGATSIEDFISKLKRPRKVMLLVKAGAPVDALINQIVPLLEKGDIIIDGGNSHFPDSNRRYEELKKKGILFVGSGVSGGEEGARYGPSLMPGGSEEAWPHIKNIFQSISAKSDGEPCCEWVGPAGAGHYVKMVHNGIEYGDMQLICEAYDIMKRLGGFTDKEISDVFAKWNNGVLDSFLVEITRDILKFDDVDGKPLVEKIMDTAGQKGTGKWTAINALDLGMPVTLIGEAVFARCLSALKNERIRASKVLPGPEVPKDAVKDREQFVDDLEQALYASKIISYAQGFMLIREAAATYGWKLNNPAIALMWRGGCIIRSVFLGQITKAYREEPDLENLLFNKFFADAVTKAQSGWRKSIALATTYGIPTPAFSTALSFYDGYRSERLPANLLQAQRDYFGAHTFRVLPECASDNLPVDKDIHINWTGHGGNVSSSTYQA


Key:
Gnd1 (6PGDH/Gnd1) = biological target: T1, Gnd1 (6PGDH/Gnd1); experiment: X-ray crystal structure, […] Å; format: binding; conditions: crystallised from 1.28 M tri-sodium citrate pH 6.5; two citrates per monomer in the 6-phosphogluconate site, contacts from both chains
[1] = biological target: the molecule itself; experiment: SEC; dimer found 'through purification and crystallization'; purification by Ni2+ chromatography and gel filtration on Superdex 200 (20 mM Tris-HCl pH 8.0, 200 mM NaCl, 20 mM β-mercaptoethanol); 'homodimer in solution'
purified protein = substrate: NC(=O)c1ccc[n+]([C@@H]2O[C@H](COP(=O)(O)OP(=O)(O)OC[C@H]3O[C@@H](n4cnc5c(N)ncnc54)[C@H](OP(=O)(O)O)[C@@H]3O)[C@@H](O)[C@H]2O)c1; experiment: purified protein; conditions: co-substrate 6-phosphogluconate (0.1-0.5 mM, varied), Gly-Gly 50 mM pH 7.5, MgCl2 10 mM, 28°C, ionic strength 0.03
[2] = biological target: the molecule itself; experiment: crystal structure; hanging-drop vapour diffusion at 15°C, 1.28 M tri-sodium citrate pH 6.5; 2.37 Å, molecular replacement; two citrate molecules bound to each monomer

Molecule | stoichiometry N [1] | also measured
O=C(O)CC(O)(CC(=O)O)C(=O)O [citrate] | – | X-ray crystal structure, 2.37 Å (Gnd1 (6PGDH/Gnd1)): two citrate molecules were bound to the active site of each Gnd1 monomer
Gnd1ΔC39 (domain or fragment, S. cerevisiae, UniProt P38720 1-450, looked up, 6-phosphogluconate dehydrogenase Gnd1, S. cerevisiae, ORF YHR183W/GND1, residues 1-450 of 489 (C-terminal 39 residues deleted); Cloned into the pET28a-derived vector and purified as the full-length protein; also called Gnd1 without the C-terminal 39 residues; source: E. coli Rossetta (DE3), purified (Ni2+ chromatography, Superdex 200 gel filtration)) MSADFGLIGLAVMGQNLILNAADHGFTVCAYNRTQSKVDHFLANEAKGKSIIGATSIEDFISKLKRPRKVMLLVKAGAPVDALINQIVPLLEKGDIIIDGGNSHFPDSNRRYEELKKKGILFVGSGVSGGEEGARYGPSLMPGGSEEAWPHIKNIFQSISAKSDGEPCCEWVGPAGAGHYVKMVHNGIEYGDMQLICEAYDIMKRLGGFTDKEISDVFAKWNNGVLDSFLVEITRDILKFDDVDGKPLVEKIMDTAGQKGTGKWTAINALDLGMPVTLIGEAVFARCLSALKNERIRASKVLPGPEVPKDAVKDREQFVDDLEQALYASKIISYAQGFMLIREAAATYGWKLNNPAIALMWRGGCIIRSVFLGQITKAYREEPDLENLLFNKFFADAVTKAQSGWRKSIALATTYGIPTPAFSTALSFYDGYRSERLPANLLQAQRDYFG | 2 | –
Gnd1ΔC53 (domain or fragment, S. cerevisiae, UniProt P38720 1-436, looked up, 6-phosphogluconate dehydrogenase Gnd1, S. cerevisiae, ORF YHR183W/GND1, residues 1-436 of 489 (C-terminal 53 residues, the entire C-terminal tail, deleted); Cloned into the pET28a-derived vector and purified as the full-length protein; also called Gnd1 without the C-terminal 53 residues; source: E. coli Rossetta (DE3), purified (Ni2+ chromatography, Superdex 200 gel filtration)) MSADFGLIGLAVMGQNLILNAADHGFTVCAYNRTQSKVDHFLANEAKGKSIIGATSIEDFISKLKRPRKVMLLVKAGAPVDALINQIVPLLEKGDIIIDGGNSHFPDSNRRYEELKKKGILFVGSGVSGGEEGARYGPSLMPGGSEEAWPHIKNIFQSISAKSDGEPCCEWVGPAGAGHYVKMVHNGIEYGDMQLICEAYDIMKRLGGFTDKEISDVFAKWNNGVLDSFLVEITRDILKFDDVDGKPLVEKIMDTAGQKGTGKWTAINALDLGMPVTLIGEAVFARCLSALKNERIRASKVLPGPEVPKDAVKDREQFVDDLEQALYASKIISYAQGFMLIREAAATYGWKLNNPAIALMWRGGCIIRSVFLGQITKAYREEPDLENLLFNKFFADAVTKAQSGWRKSIALATTYGIPTPAFSTALSFYDGYRSER | 2 | –
Gnd1ΔC35 (domain or fragment, S. cerevisiae, UniProt P38720 1-454, looked up, 6-phosphogluconate dehydrogenase Gnd1, S. cerevisiae, ORF YHR183W/GND1, residues 1-454 of 489 (C-terminal 35 residues deleted); Cloned into the pET28a-derived vector and purified as the full-length protein; also called Gnd1 without the C-terminal 35 residues; source: E. coli Rossetta (DE3), purified (Ni2+ chromatography, Superdex 200 gel filtration)) MSADFGLIGLAVMGQNLILNAADHGFTVCAYNRTQSKVDHFLANEAKGKSIIGATSIEDFISKLKRPRKVMLLVKAGAPVDALINQIVPLLEKGDIIIDGGNSHFPDSNRRYEELKKKGILFVGSGVSGGEEGARYGPSLMPGGSEEAWPHIKNIFQSISAKSDGEPCCEWVGPAGAGHYVKMVHNGIEYGDMQLICEAYDIMKRLGGFTDKEISDVFAKWNNGVLDSFLVEITRDILKFDDVDGKPLVEKIMDTAGQKGTGKWTAINALDLGMPVTLIGEAVFARCLSALKNERIRASKVLPGPEVPKDAVKDREQFVDDLEQALYASKIISYAQGFMLIREAAATYGWKLNNPAIALMWRGGCIIRSVFLGQITKAYREEPDLENLLFNKFFADAVTKAQSGWRKSIALATTYGIPTPAFSTALSFYDGYRSERLPANLLQAQRDYFGAHTF | 2 | –
Saccharomyces cerevisiae 6-phosphogluconate dehydrogenase Gnd1 (enzyme, S. cerevisiae, UniProt P38720 1-489, looked up, 6-phosphogluconate dehydrogenase Gnd1, S. cerevisiae strain S288C, ORF YHR183W/GND1, 489 residues; residues 1-476 are seen in the crystal structure; The asymmetric unit holds one monomer (final model 1-476 for one monomer); the dimer is described as the biological unit; also called 6PGDH/Gnd1; 6PGDH) MSADFGLIGLAVMGQNLILNAADHGFTVCAYNRTQSKVDHFLANEAKGKSIIGATSIEDFISKLKRPRKVMLLVKAGAPVDALINQIVPLLEKGDIIIDGGNSHFPDSNRRYEELKKKGILFVGSGVSGGEEGARYGPSLMPGGSEEAWPHIKNIFQSISAKSDGEPCCEWVGPAGAGHYVKMVHNGIEYGDMQLICEAYDIMKRLGGFTDKEISDVFAKWNNGVLDSFLVEITRDILKFDDVDGKPLVEKIMDTAGQKGTGKWTAINALDLGMPVTLIGEAVFARCLSALKNERIRASKVLPGPEVPKDAVKDREQFVDDLEQALYASKIISYAQGFMLIREAAATYGWKLNNPAIALMWRGGCIIRSVFLGQITKAYREEPDLENLLFNKFFADAVTKAQSGWRKSIALATTYGIPTPAFSTALSFYDGYRSERLPANLLQAQRDYFGAHTFRVLPECASDNLPVDKDIHINWTGHGGNVSSSTYQA | – | Km (purified protein): 35 ± 6 µM; stoichiometry N [2]: 2
